The values that follow come from doi:10.1101/466938v1.

Substrate in data set [1]: Cc1cn([C@H]2C[C@H](O)[C@@H](COP(=O)(O)O)O2)c(=O)[nH]c1=O
The data set is described as follows: NADH-coupled assay. Format: biochemical, Homo sapiens. The conditions noted are these: 500 μM ATP, 100 mM Tris-HCl, 100 mM KCl, 10 mM MgCl2.

Substrate in data set [2]: Cc1cn([C@H]2C[C@H](O)[C@@H](COP(=O)(O)O)O2)c(=O)[nH]c1=O
The experiment in a line: NADH-coupled assay. Format: biochemical, Candida albicans. To be noted: 500 μM ATP, 100 mM Tris-HCl, 100 mM KCl, 10 mM MgCl2.

B1: hTMPK (Homo sapiens) (protein)
chain: MAARRGALIVLEGVDRAGKSTQSRKLVEALCAAGHRAELLRFPERSTEIGKLLSSYLQKKSDVEDHSVHLLFSANRWEQVPLIKEKLSQGVTLVVDRYAFSGVAFTGAKENFSLDWCKQPDVGLPKPDLVLFLQLQLADAAKRGAFGHERYENGAFQERALRCFHQLMKDTTLNWKMVDASKSIEAVHEDIRVLSEDAIRTATEKPLGELWK
By Km is commonly meant the concentration of substrate that gives half-maximal velocity. Broadly, the kcat is the number of substrate molecules converted per active site and unit of time at saturation. As to B1, in the data set “NADH-coupled assay [1]”, the Km worked out at 16.3 ± 2.3 µM and the kcat is 0.352 ± 0.01 s⁻¹.

B2: CaTMPK (Candida albicans SC5314) (protein)
chain: MARGQLILIEGLDRSGKSTQASILSTKLSPSKLIKFPDRSTPIGKLINEYLTNKSFTLSDQAAHLLFSANRWELSQQIQDLLNQGYFIILDRYIYSGIAYTLAKNDFHDETISQGKNKQQLNNIDWLLSPDKGLPKPDLTLFLTLDLEEISKRKGWGDERYELQQFQAKVKQCFLEILDTNKDPTIRIVDVGGKTIDQVTTQLWEIIETNKNHELINDSIQFIT
In the case of B2, in the data set “NADH-coupled assay [2]”, the Km stood at 24.1 ± 3.2 µM and the turnover number (kcat) is 5.347 ± 0.118 s⁻¹.
